Data as given in IntAct's records for PubMed 12796778.

B1: Nuclear distribution protein nudE-like 1 (Mus musculus), Q9ERR1 (parent)
chain: MDGEDIPDFSSLKEETAYWKELSLKYKQSFQEARDELVEFQEGSRELEAELEAQLVQAEQRNRDLQADNQRLKYEVEALKEKLEHQYAQSYKQVSVLEDDLSQTRAIKEQLHKYVRELEQANDDLERAKRATIVSLEDFEQRLNQAIERNAFLESELDEKESLLVSVQRLKDEARDLRQELAVRERQQEVTRKSAPSSPTLDCEKMDSAVQASLSLPATPVGKGTENSFPSPKAIPNGFGTSPLTPSARISALNIVGDLLRKVGALESKLAACRNFAKDQASRKSYVPGSVNCGVMNSNGPECPRSGRATFFHKGAVNGFDPAPPPPGLGSSRPSSAPGMLPLSV

Variants of: B1
Conditions: with 1433e_mouse Ywhae

Variant | effect of a mutation on the interaction
MDGEDIPDFSSLKEETAYWKELSLKYKQSFQEARDELVEFQEGSRELEAELEAQLVQAEQRNRDLQADNQRLKYEVEALKEKLEHQYAQSYKQVSVLEDDLSQTRAIKEQLHKYVRELEQANDDLERAKRATIVSLEDFEQRLNQAIERNAFLESELDEKESLLVSVQRLKDEARDLRQELAVRERQQEVTRKSAPSAPTLDCEKMDSAVQASLSLPATPVGKGTENSFPSPKAIPNGFGTSPLTPSARISALNIVGDLLRKVGALESKLAACRNFAKDQASRKSYVPGSVNCGVMNSNGPECPRSGRATFFHKGAVNGFDPAPPPPGLGSSRPSSAPGMLPLSV [S198A] | decreasing interaction strength
MDGEDIPDFSSLKEETAYWKELSLKYKQSFQEARDELVEFQEGSRELEAELEAQLVQAEQRNRDLQADNQRLKYEVEALKEKLEHQYAQSYKQVSVLEDDLSQTRAIKEQLHKYVRELEQANDDLERAKRATIVSLEDFEQRLNQAIERNAFLESELDEKESLLVSVQRLKDEARDLRQELAVRERQQEVTRKSAPSSPTLDCEKMDSAVQASLSLPAAPVGKGTENSFPSPKAIPNGFGTSPLTPSARISALNIVGDLLRKVGALESKLAACRNFAKDQASRKSYVPGSVNCGVMNSNGPECPRSGRATFFHKGAVNGFDPAPPPPGLGSSRPSSAPGMLPLSV [T219A] | decreasing interaction strength
MDGEDIPDFSSLKEETAYWKELSLKYKQSFQEARDELVEFQEGSRELEAELEAQLVQAEQRNRDLQADNQRLKYEVEALKEKLEHQYAQSYKQVSVLEDDLSQTRAIKEQLHKYVRELEQANDDLERAKRATIVSLEDFEQRLNQAIERNAFLESELDEKESLLVSVQRLKDEARDLRQELAVRERQQEVTRKSAPSAPTLDCEKMDSAVQASLSLPAAPVGKGTENSFPAPKAIPNGFGTSPLTPSARISALNIVGDLLRKVGALESKLAACRNFAKDQASRKSYVPGSVNCGVMNSNGPECPRSGRATFFHKGAVNGFDPAPPPPGLGSSRPSSAPGMLPLSV [S198A;T219A;S231A] | disrupting interaction strength
MDGEDIPDFSSLKEETAYWKELSLKYKQSFQEARDELVEFQEGSRELEAELEAQLVQAEQRNRDLQADNQRLKYEVEALKEKLEHQYAQSYKQVSVLEDDLSQTRAIKEQLHKYVRELEQANDDLERAKRATIVSLEDFEQRLNQAIERNAFLESELDEKESLLVSVQRLKDEARDLRQELAVRERQQEVTRKSAPSSPTLDCEKMDSAVQASLSLPATPVGKGTENSFPAPKAIPNGFGTSPLTPSARISALNIVGDLLRKVGALESKLAACRNFAKDQASRKSYVPGSVNCGVMNSNGPECPRSGRATFFHKGAVNGFDPAPPPPGLGSSRPSSAPGMLPLSV [S231A] | decreasing interaction strength
